Assay results from the supplement of paper PMC6379048.

How the values were obtained:
Experiment in all cases: EC50 of free RNA motif oligo competing protein binding to immobilised probe
IFIT5 = target: T1, IFIT5 (UniProt Q13325)
T1 sequence: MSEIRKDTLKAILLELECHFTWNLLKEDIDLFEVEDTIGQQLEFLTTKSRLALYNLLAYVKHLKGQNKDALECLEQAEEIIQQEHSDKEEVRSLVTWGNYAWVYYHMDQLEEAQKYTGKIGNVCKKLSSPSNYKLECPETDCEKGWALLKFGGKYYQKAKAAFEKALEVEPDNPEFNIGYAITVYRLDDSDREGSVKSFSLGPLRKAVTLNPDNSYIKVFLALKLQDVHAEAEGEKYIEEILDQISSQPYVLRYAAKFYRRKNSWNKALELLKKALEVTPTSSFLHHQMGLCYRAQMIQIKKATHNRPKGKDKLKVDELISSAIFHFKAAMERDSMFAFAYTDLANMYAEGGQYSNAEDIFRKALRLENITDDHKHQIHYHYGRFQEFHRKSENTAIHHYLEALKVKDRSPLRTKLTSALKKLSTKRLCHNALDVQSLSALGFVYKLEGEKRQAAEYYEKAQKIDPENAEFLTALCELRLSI
Summary of the method: (§1)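 To obtain EC50, data were fitted with a four-parameter log-logistic model; Kd was then EC50 multiplied by a protein-dependent depletion factor. Beforehand, free RNA oligos (0 nM to 30 μM) were pre-incubated with HEK293-FT lysate (2.5 mg protein/well) for 1 h at 4°C. The lysate then spent 30 min at 4°C with the same 5′-amino-C6 oligos coupled to NHS-Sepharose beads, and bound proteins were quantified by label-free LC-MS/MS, normalised to the control.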

MRPL11 = MRPL11 (UniProt Q9Y3B7)
Summary of the method: as §1

PRPF4 = target: T2, PRPF4 (UniProt O43172)
T2 sequence: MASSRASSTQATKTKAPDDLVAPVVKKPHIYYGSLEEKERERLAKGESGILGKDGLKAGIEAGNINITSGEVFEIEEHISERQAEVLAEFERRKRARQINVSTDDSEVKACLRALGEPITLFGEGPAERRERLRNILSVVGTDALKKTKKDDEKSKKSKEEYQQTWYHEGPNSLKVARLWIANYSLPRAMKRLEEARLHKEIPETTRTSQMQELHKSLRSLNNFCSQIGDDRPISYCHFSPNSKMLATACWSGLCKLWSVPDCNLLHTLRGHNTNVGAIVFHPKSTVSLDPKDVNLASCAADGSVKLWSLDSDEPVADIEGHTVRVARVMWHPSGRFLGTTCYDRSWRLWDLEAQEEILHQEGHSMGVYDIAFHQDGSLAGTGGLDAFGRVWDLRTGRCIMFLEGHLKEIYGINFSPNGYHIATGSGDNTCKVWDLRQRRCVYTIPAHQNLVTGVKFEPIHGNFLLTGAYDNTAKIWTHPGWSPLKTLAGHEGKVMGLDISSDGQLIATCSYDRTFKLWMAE
Summary of the method: as §1

ZFP36L1 = target: T3, ZFP36L1 (UniProt Q07352)
T3 sequence: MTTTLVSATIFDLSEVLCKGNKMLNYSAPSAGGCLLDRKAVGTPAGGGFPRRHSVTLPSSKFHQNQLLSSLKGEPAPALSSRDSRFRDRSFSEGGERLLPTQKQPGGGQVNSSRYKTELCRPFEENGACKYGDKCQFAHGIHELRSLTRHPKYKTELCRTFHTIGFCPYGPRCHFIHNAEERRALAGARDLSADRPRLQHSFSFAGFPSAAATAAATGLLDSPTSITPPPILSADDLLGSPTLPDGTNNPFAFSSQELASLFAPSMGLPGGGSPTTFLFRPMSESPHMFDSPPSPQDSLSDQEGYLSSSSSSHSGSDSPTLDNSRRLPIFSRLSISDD
Summary of the method: as §1

GRSF1 = target: T4, GRSF1 (UniProt Q12849)
T4 sequence: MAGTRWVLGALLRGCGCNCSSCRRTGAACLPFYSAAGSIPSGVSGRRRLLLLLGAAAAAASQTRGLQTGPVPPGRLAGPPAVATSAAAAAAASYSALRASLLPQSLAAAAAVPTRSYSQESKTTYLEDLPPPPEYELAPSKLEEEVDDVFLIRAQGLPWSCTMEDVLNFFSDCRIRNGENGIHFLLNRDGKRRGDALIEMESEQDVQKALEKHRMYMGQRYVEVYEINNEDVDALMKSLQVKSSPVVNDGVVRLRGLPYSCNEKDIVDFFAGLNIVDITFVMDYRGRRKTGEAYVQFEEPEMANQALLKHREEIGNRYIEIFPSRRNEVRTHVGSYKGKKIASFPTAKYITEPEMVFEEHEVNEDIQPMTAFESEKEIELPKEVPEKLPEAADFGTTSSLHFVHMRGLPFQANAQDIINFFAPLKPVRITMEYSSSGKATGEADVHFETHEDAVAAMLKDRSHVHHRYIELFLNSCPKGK
Summary of the method: as §1

ERAL1 = target: T5, ERAL1 (UniProt O75616)
T5 sequence: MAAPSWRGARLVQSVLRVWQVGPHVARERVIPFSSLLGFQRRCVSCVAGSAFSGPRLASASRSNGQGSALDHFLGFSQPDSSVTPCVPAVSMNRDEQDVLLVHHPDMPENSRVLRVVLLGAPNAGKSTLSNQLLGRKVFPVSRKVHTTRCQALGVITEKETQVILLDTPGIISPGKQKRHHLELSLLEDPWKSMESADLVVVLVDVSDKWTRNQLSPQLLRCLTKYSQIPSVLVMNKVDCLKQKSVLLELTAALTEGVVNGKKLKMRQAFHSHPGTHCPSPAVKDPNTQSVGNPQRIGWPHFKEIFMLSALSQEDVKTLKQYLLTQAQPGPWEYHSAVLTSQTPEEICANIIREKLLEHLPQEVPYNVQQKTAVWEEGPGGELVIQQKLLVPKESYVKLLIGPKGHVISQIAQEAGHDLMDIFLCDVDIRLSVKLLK
Summary of the method: as §1

AAUAAA
EC50 (IFIT5): 1190 nM

CUGUCCU
EC50 (MRPL11): 118 nM

UAUUUAU
EC50 (PRPF4): 6810 nM
EC50 (ZFP36L1): 73.9 nM
EC50 (GRSF1): 18000 nM
EC50 (ERAL1): 27.8 nM
